These results are taken from patent US20210238268A1 (ATARGA, published 2021).

B1: ATG-001 (antibody, V domains shown)
VH: QVQLVQSGAEVKKPGASVKVSCKASGYIFTNYWMQWVRQAPGQGLEWMGEILPGTGSTEYAQKFQGRVTMTRDTSISTVYMEVRRLRSDDTAVYYCARYFFGSTPNWYFDVWGQGTLVTVSS
VL: EIVMTQSPSSLSASVGDRVTITCGATENIYGALNWYQHEPGKAPKLLIYGASNLADGVTSRFSGSGSGTDFTLTISTLQPEDFATYYCQNVLNTPLSFGGGTKVDIKR
notes: Expressed in Expi CHO cells; also called anti-C5 monoclonal antibody ATG-001
B2: ATG-005 (antibody, V domains shown)
VH: QVQLVQSGAEVKKPGASVKVSCKASGYIFTNYWMQWVRQAPGQGLEWMGEILPGTGSTEYAQKFQGRVTMTRDTSISTVYMEVRRLRSDDTAVYYCARYFFGSTPNWYFDVWGQGTLVTVSS
VL: EIVMTQSPSSLSASVGDRVTITCGATENIYGALNWYQHEPGKAPKLLIYGASNRYTGVTSRFSGSGSGTDFTLTISTLQPEDFATYYCQQVLNTPVSFGGGTKVDIKR
notes: Expressed in Expi CHO cells; also called anti-C5 monoclonal antibody ATG-005
B3: ATG-006 (antibody, V domains shown)
VH: QVQLVQSGAEVKKPGASVKVSCKASGYIFTDFYMQWVRQAPGQGLEWMGEILPGTGSTEYAQKFQGRVTMTRDTSISTVYMEVRRLRSDDTAVYYCARYFFGSTPNWYFDVWGQGTLVTVSS
VL: EIVMTQSPSSLSASVGDRVTITCGATENIYGALNWYQHEPGKAPKLLIYGASNRYTGVTSRFSGSGSGTDFTLTISTLQPEDFATYYCQQVLNTPVSFGGGTKVDIKR
notes: Expressed in Expi CHO cells; also called anti-C5 monoclonal antibody ATG-006
B4: ATG-008 (antibody, IgG2)
heavy: QVQLVQSGAEVKKPGASVKVSCKASGHIFTDFYMQWVRQAPGQGLEWMGEILPGTGHTEYAQKFQGRVTMTRDTSISTVYMEVRRLRSDDTAVYYCARYFFGSTPNWYFDVWGQGTLVTVSSASTKGPSVFPLAPCSRSTSESTAALGCLVKDYFPEPVTVSWNSGALTSGVHTFPAVLQSSGLYSLSSVVTVPSSNFGTQTYTCNVDHKPSNTKVDKTVERKCCVECPPCPAPPVAGPSVFLFPPKPKDTLMISRTPEVTCVVVDVSQEDPEVQFNWYVDGVEVHNAKTKPREEQFNSTYRVVSVLTVLHQDWLNGKEYKCKVSNKGLPSSIEKTISKAKGQPREPQVYTLPPSQEEMTKNQVSLTCLVKGFYPSDIAVEWESNGQPENNYKTTPPVLDSDGSFFLYSRLTVDKSRWQEGNVFSCSVLHEALHSHYTQKSLSLSLGK
light: EIVMTQSPSSLSASVGDRVTITCGATENIYGALNWYQHEPGKAPKLLIYGASNRYTGVTSRFSGSGSGTDFTLTISTLQPEDFATYYCQQVLNTPVSFGGGTKVDIKRTVAAPSVFIFPPSDEQLKSGTASVVCLLNNFYPREAKVQWKVDNALQSGNSQESVTEQDSKDSTYSLSSTLTLSKADYEKHKVYACEVTHQGLSSPVTKSFNRGEC
notes: Expressed in Expi CHO cells; also called anti-C5 monoclonal antibody ATG-008
B5: ATG-012 (antibody, IgG2)
heavy: QVQLVQSGAEVKKPGASVKVSCKASGHIFTDFYMQWVRQAPGQGLEWMGEILPGTGHTEYAQKFQGRVTMTRDTSISTVYMEVRRLRSDDTAVYYCARYFFGSTPNWYFDVWGQGTLVTVSSASTKGPSVFPLAPCSRSTSESTAALGCLVKDYFPEPVTVSWNSGALTSGVHTFPAVLQSSGLYSLSSVVTVPSSNFGTQTYTCNVDHKPSNTKVDKTVERKCCVECPPCPAPPVAGPSVFLFPPKPKDTLYITREPEVTCVVVDVSQEDPEVQFNWYVDGVEVHNAKTKPREEQFNSTYRVVSVLTVLHQDWLNGKEYKCKVSNKGLPSSIEKTISKAKGQPREPQVYTLPPSQEEMTKNQVSLTCLVKGFYPSDIAVEWESNGQPENNYKTTPPVLDSDGSFFLYSRLTVDKSRWQEGNVFSCSVMHEALHNHYTQKSLSLSLGK
light: EIVMTQSPSSLSASVGDRVTITCGATENIYGALNWYQHEPGKAPKLLIYGASNRYTGVTSRFSGSGSGTDFTLTISTLQPEDFATYYCQQVLNTPVSFGGGTKVDIKRTVAAPSVFIFPPSDEQLKSGTASVVCLLNNFYPREAKVQWKVDNALQSGNSQESVTEQDSKDSTYSLSSTLTLSKADYEKHKVYACEVTHQGLSSPVTKSFNRGEC
notes: Same variable regions as ATG-008; Expressed in Expi CHO cells; also called anti-C5 monoclonal antibody ATG-012

T1 sequence (P01031 19-1676 limits assumed): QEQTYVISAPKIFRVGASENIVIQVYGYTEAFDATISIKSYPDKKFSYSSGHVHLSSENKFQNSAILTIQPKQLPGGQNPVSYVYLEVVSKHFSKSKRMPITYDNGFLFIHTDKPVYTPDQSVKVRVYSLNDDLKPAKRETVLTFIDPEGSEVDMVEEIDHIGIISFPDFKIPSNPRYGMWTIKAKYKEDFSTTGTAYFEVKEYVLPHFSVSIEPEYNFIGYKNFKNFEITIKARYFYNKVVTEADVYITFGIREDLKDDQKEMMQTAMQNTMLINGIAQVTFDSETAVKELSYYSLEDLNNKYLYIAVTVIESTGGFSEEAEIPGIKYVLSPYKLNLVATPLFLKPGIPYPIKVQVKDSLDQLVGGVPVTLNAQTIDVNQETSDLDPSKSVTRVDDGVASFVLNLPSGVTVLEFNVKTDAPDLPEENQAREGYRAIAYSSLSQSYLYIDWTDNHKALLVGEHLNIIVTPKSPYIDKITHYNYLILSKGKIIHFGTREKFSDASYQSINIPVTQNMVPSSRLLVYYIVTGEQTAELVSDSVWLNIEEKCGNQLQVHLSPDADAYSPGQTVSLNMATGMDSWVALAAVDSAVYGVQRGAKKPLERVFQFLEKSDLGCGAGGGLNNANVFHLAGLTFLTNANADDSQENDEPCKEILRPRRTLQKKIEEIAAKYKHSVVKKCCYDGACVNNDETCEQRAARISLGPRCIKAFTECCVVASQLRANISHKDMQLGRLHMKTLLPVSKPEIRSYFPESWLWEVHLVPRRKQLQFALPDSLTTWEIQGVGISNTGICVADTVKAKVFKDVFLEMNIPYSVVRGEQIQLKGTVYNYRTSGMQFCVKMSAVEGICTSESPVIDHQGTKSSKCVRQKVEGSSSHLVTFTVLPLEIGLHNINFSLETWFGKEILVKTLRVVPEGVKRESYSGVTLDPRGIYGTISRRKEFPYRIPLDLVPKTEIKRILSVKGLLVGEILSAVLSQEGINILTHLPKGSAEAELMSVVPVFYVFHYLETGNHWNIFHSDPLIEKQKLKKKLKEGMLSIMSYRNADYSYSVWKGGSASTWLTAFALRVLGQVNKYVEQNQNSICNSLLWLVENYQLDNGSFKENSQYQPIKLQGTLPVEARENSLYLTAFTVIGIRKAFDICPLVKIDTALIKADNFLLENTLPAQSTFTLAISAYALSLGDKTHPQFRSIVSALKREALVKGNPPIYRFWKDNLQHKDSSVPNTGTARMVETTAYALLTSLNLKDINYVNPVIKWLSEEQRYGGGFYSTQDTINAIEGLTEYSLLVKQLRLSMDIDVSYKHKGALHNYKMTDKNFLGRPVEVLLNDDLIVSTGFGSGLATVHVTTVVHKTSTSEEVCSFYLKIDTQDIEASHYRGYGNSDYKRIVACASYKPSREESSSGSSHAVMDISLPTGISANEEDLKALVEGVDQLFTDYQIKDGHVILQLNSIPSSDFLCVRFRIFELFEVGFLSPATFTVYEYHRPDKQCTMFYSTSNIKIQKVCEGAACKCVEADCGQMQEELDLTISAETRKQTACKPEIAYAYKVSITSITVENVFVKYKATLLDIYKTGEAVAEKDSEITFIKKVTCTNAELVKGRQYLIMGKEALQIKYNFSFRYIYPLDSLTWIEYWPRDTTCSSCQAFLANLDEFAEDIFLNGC

This assay concerns the target T1, human Complement component 5 (C5) (human, UniProt P01031 19-1676, limits assumed).
T1 construct: also called human C5
Description: ELISA, binding to human C5 at pH 7.4 (C5 ELISA, absorbance at 450 nm). As to the method: The exemplary antibodies were tested for binding to human C5 at pH 7.4 using ELISA.
(An ELISA detects its analyte on a solid surface through an enzyme-linked reagent.)
On to B1, for which the response was half-maximal at 0.099 µg/mL (EC50).
Consider B2, for which the EC50 is 0.041 µg/mL and the “EC50 (read off the curve)” value was approximately 0.04 µg/mL.
Take B3: the response was half-maximal at 0.034 µg/mL (EC50) and the “EC50 (read off the curve)” value was approximately 0.03 µg/mL.
B4 registered an EC50 of 0.09 µg/mL.
In turn, B5 had an EC50 of 0.52 µg/mL.

Broadly, the EC50 is the concentration needed to bring the measured effect to its halfway point. One may read the EC50 (read off the curve) as the concentration that produces a half-maximal response.
